Publication PMC3649970, “A Unique Spumavirus Gag N-terminal Domain with Functional Properties of Orthoretroviral Matrix and Capsid” (PLoS Pathogens, 2013)

Key:
PFV-Gag-NtD V14S = biological target: T1, PFV-Gag-NtD V14S (Prototypic foamy virus (PFV), UniProt P14349 1-179, V14S); assay: AUC; sedimentation velocity of 75 µM equimolar mixtures of Gag-NtD and Env peptide, absorbance at 280 nm; bound fraction from the integrated absorbance of the 3S species in C(S); details: both partners purified
T1 construct: Gag of Prototypic Foamy Virus, residues 1-179 (Gag-NtD) with V14S
T1 sequence (looked up): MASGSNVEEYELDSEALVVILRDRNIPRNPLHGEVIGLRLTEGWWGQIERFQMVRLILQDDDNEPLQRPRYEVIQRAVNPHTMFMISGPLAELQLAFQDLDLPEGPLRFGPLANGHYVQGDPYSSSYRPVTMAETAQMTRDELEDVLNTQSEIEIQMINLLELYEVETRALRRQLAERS

PFV-Gag-NtD L21N = biological target: T2, PFV-Gag-NtD L21N (Prototypic foamy virus (PFV), UniProt P14349 1-179, L21N); assay: as above; details: both partners purified
T2 construct: Gag of Prototypic Foamy Virus, residues 1-179 (Gag-NtD) with L21N
T2 sequence (looked up): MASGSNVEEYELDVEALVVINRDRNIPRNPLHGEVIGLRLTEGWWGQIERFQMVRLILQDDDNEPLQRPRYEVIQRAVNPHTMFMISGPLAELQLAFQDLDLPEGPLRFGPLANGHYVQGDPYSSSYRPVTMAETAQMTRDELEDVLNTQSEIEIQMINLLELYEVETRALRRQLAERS

PFV-Gag-NtD V18S/L21S = biological target: T3, PFV-Gag-NtD V18S/L21S (Prototypic foamy virus (PFV), UniProt P14349 1-179, V18S | L21S); assay: as above; details: both partners purified
T3 construct: Gag of Prototypic Foamy Virus, residues 1-179 (Gag-NtD) with V18S and L21S
T3 sequence (looked up): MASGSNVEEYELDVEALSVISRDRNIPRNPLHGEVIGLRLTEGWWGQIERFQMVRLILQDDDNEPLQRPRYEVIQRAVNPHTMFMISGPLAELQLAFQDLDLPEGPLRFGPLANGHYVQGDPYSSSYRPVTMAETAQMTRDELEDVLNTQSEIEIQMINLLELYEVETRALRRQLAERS

PFV-Gag-NtD L21S = biological target: T4, PFV-Gag-NtD L21S (Prototypic foamy virus (PFV), UniProt P14349 1-179, L21S); assay: as above; details: both partners purified
T4 construct: Gag of Prototypic Foamy Virus, residues 1-179 (Gag-NtD) with L21S
T4 sequence (looked up): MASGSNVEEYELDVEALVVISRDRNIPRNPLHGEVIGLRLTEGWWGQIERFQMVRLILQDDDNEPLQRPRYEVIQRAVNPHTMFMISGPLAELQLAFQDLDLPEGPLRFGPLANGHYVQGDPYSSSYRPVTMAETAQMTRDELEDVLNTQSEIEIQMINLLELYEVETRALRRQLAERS

PFV-Gag-NtD V14S/L21S = biological target: T5, PFV-Gag-NtD V14S/L21S (Prototypic foamy virus (PFV), UniProt P14349 1-179, V14S | L21S); assay: as above; details: both partners purified
T5 construct: Gag of Prototypic Foamy Virus, residues 1-179 (Gag-NtD) with V14S and L21S; also called Val14/Leu21 to serine
T5 sequence (looked up): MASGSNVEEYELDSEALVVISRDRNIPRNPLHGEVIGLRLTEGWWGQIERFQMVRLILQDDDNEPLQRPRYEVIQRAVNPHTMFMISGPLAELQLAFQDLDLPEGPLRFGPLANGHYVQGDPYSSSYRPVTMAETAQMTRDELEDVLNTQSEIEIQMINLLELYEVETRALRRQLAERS

[1] = biological target: T6, PFV-Gag-NtD (amino terminal domain of Prototypic Foamy Virus Gag, residues 1-179) (Prototypic foamy virus (PFV), UniProt P14349 1-179); assay: as above; details: both partners purified
T6 construct: source: E. coli Rosetta 2 (DE3), purified (Ni-NTA, Superdex 200 SEC); not shown: His-tag, N-terminal, kept
T6 sequence: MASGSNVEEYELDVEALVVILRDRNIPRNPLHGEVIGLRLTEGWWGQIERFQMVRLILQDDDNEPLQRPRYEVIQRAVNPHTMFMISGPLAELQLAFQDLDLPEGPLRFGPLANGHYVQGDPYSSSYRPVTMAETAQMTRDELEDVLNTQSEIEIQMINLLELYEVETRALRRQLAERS

PFV-Gag-NtD L17S = biological target: T7, PFV-Gag-NtD L17S (Prototypic foamy virus (PFV), UniProt P14349 1-179, L17S); assay: as above; details: both partners purified
T7 construct: Gag of Prototypic Foamy Virus, residues 1-179 (Gag-NtD) with L17S
T7 sequence (looked up): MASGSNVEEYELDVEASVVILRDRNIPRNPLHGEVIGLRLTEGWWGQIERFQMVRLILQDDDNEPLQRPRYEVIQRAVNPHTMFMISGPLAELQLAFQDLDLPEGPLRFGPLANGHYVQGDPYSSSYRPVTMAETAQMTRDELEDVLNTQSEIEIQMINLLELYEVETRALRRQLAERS

[2] = biological target: T8, PFV-Gag-NtD (amino terminal domain of Prototypic Foamy Virus Gag, residues 1-179) (Prototypic foamy virus (PFV), UniProt P14349 1-179); assay: AUC
T8 chain: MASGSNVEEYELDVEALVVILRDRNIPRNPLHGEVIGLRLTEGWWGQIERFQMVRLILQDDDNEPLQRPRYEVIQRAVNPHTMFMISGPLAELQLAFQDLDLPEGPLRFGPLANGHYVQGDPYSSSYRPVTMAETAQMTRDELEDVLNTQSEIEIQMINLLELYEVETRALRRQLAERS

B1: PFV Env leader peptide residues 1-20 (peptide, UniProt P14351 1-20, looked up)
peptide: MAPPMTLQQWIIWKKMNKAH
notes: Envelope (Env) protein of Prototypic Foamy Virus, N-terminal leader peptide region, residues 1-20 (Met1 to His20); the text names M1, A2, P3, P4, M5, T6, L7, Q9, W10, W13, M16, A19, H20; also called Env_(1-20); Env(1-20); source: synthetic peptide, bought HPLC purified: Pepceuticals Ltd
B1: binds (PFV-Gag-NtD V14S); binds (PFV-Gag-NtD L21N); binds (PFV-Gag-NtD V18S/L21S). The “fold decrease of affinity against wt PFV-Gag-NtD” value (PFV-Gag-NtD L21S) was 5 fold, the “fold reduction in binding against wt PFV-Gag-NtD” value (PFV-Gag-NtD V14S/L21S) was roughly 20 fold and the Ka [1] was 130000 M⁻¹. For the same binder, the “fold decrease of affinity against wt PFV-Gag-NtD” value (PFV-Gag-NtD L17S) was 2 fold and the Kd [2] was 7.5 µM.
